Assay results from PMC9537594 (2022).

B1: GST-SEC24C_(196-314)(LCR-FG-LCR) (domain or fragment)
chain: HPGIQTPQRSAPSQASSFTPPASGGPRLPSMTGPLLPGQSFGGPSVSQPNHVSSPPQALPPGTQMTGPLGPLPPMHSPQQPGYQPQQNGSFGPARGPQSNYGGPYPAAPTFGSQPGPPQ
B2: GST-NUP153_(1306-1450)(LCR-FG-LCR) (domain or fragment)
chain: FGTGPSAPSASPAFGANQTPTFGQSQGASQPNPPGFGSISSSTALFPTGSQPAPPTFGTVSSSSQPPVFGQQPSQSAFGSGTTPNSSSAFQFGSSTTNFNFTNNSPSGVFTFGANSSTPAASAQPSGSGGFPFNQSPAAFTVGSN
B3: GST-CPSF6_(261-358)(LCR-FG-LCR) (domain or fragment)
chain: SDIIPTTENLYFQGAIAEIPIFGLKAGQTPPRPPLGPPGPPGPPGPPPPGQVLPPPLAGPPNRGDRPPPPVLFPGQPFGQPPLGPLPPGPPPPVPGYGPPPGPPPPQQGPPPPPG

Target: Native HIV-1 cores (mature CA lattice of hexamers and pentamers) (HIV-1)

Going from B1 to B2, the Kd falls from 810 nM to 310 nM (2.6-fold). The second binds more tightly here.

Work on B3 yielded a Kd of 890 nM.
